Data on 1 substance can be found in publication PMC2171497.

In this assay the target is 2′,3′-cyclic nucleotide 3′-phosphodiesterase (CNP), endogenous, rat (rat (endogenous in cultured rat OLs and rat brain)) (UniProt P13233). Put plainly: co-IP.

As usually defined, the stoichiometry N is the number of molecules, sites or subunits per partner or assembly.

UniProt P13233, sequence (P13233 whole entry): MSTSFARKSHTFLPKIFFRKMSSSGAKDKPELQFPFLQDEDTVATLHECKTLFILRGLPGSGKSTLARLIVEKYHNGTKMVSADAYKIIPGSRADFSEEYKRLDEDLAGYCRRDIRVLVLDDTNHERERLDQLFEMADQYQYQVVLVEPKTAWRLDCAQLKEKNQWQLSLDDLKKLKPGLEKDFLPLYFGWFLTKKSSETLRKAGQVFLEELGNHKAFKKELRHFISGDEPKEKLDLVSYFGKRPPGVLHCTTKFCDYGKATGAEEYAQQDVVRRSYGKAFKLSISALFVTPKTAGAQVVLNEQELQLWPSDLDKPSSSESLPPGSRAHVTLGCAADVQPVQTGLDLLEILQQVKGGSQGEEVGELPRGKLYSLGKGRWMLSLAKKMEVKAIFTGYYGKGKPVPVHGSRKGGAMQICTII

Substance “tubulin (α- and β-tubulin), endogenous, rat (from UniProt P68370 1-451; Q3KRE8 1-445) (complex)” displayed a stoichiometry N of 1.
